The results in this text go back to publication PMC3369482 (Biochemical Journal, 2012).

Test in all cases: enzyme inhibition kinetics
Assay [1] deals with T1, Recombinant human ADAMTS-5 (adamalysin with thrombospondin motifs 5), full-length (human, UniProt Q9UNA0 262-930).
T1 sequence (looked up): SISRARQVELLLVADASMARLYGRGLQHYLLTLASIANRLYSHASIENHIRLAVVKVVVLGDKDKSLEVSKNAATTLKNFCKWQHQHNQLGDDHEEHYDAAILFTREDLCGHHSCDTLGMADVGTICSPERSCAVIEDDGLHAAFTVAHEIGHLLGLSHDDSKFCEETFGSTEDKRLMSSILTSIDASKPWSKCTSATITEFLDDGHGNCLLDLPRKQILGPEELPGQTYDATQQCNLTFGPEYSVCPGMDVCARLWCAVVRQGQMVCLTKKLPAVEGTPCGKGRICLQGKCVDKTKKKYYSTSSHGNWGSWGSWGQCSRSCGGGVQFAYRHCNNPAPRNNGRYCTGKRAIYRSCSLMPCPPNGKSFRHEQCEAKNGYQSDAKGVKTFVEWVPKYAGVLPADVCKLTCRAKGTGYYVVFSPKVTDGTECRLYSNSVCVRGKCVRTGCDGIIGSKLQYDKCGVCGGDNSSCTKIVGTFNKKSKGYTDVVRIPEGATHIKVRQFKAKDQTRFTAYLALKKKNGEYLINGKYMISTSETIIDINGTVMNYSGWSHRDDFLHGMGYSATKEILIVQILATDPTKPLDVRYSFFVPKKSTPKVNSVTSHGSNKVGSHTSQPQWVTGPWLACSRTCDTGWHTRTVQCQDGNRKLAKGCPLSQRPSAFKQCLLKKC

Assay [2] addresses T1, Recombinant human ADAMTS-5 (adamalysin …). This is another data set of the same source.
For assay [3], the target named is T2, ADAMTS5-2 (ADAMTS-5 lacking the C-terminal TS-2 domain) (human, UniProt Q9UNA0 262-874).
T2 sequence (looked up): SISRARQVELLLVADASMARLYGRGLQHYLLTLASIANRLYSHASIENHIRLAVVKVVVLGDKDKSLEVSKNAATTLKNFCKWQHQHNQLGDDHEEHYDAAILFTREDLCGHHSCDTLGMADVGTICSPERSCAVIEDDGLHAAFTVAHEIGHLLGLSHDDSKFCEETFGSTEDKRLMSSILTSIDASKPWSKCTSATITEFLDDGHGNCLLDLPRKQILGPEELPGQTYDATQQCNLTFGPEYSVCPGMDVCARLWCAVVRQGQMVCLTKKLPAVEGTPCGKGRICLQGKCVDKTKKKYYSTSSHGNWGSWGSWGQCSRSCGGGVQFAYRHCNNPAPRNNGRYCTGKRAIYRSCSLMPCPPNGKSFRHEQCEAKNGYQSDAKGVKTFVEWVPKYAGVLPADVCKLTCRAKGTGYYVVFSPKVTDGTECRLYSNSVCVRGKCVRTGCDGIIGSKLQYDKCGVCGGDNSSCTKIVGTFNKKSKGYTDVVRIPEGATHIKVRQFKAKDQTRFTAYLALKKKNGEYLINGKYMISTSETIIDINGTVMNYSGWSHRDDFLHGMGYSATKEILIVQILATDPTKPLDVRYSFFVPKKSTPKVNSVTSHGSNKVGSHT

The target in a further assay is T3, MMP-2 (UniProt P08253 110-660).
T3 sequence (looked up): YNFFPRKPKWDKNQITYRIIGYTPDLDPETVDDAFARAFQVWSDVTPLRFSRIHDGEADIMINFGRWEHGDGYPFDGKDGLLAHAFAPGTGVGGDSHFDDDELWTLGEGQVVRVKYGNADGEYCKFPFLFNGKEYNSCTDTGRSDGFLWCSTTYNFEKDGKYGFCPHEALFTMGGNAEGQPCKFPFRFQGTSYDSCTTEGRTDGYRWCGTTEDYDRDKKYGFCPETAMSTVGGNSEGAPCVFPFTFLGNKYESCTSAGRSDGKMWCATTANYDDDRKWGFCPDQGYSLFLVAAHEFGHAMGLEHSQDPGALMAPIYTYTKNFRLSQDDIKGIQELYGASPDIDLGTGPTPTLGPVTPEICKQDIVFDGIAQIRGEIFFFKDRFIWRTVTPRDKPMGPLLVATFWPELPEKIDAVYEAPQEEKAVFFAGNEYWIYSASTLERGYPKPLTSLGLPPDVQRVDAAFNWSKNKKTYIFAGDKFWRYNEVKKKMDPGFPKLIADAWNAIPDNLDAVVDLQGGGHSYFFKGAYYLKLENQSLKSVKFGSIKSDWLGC

The target of another assay is MMP-3 catalytic domain (UniProt P08254 100-272).
Chain of MMP-3 catalytic domain (P08254 100-272): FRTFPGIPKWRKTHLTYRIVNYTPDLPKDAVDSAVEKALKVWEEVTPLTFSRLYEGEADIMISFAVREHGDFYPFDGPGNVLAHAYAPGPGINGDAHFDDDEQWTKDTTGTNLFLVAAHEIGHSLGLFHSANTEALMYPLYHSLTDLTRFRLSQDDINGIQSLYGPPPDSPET
Assay [4] concerns the target T4, MMP (matrix metalloproteinase)-1 catalytic domain (UniProt P03956 100-269).
T4 sequence (looked up): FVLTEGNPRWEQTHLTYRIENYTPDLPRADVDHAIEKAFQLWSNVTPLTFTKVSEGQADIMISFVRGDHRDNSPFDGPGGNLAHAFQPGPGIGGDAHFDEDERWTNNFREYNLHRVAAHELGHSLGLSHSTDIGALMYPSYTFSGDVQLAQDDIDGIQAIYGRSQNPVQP

Read-outs that look alike come from different tables or passages of the source.

B1: TIMP-1 (tissue inhibitor of metalloproteinases 1) (natural protein)
chain: not shown
For the molecule B1, the Ki worked out at 522000 ± 240 pM in assay [1] and 734000 ± 160 pM in assay [2].

B2: TIMP-3(K26/27/30/76E+R163/K165Q) (natural protein, human, UniProt P35625 24-211, looked up)
chain: CTCSPSHPQDAFCNSDIVIRAKVVGEELVEEGPFGTLVYTIKQMKMYRGFTKMPHVQYIHTEASESLCGLKLEVNEYQYLLTGRVYDGKMYTGLCNFVERWDQLTLSQRKGLNYRYHLGCNCKIKSCYYLPCFVTSKNECLWTDMLSNFGYPGYQSKHYACIQQQGGYCSWYRGWAPPDKSIINATDP
Consider B2, for which the Ki in assay [3] amounted to 1340 ± 40 pM.

B3: Recombinant human TIMP-3 (tissue inhibitor of metalloproteinases 3) (natural protein, UniProt P35625 24-211, looked up)
chain: CTCSPSHPQDAFCNSDIVIRAKVVGKKLVKEGPFGTLVYTIKQMKMYRGFTKMPHVQYIHTEASESLCGLKLEVNKYQYLLTGRVYDGKMYTGLCNFVERWDQLTLSQRKGLNYRYHLGCNCKIKSCYYLPCFVTSKNECLWTDMLSNFGYPGYQSKHYACIRQKGGYCSWYRGWAPPDKSIINATDP
Regarding B3, the inhibition constant (Ki) with MMP-2 was 160 ± 2 pM; with MMP-3 catalytic domain, 900 ± 280 pM; in assay [2] it was 560 ± 30 pM; in assay [4], 430 ± 120 pM.

As usually defined, the Ki is a dissociation constant, usually derived from enzyme kinetics or from competition with a known ligand.
